We go through 29 molecules from patent publication US20210047402A1 (TENEOBIO, published 2021).

B1: anti-CD22 heavy chain-only antibody Clone ID 335206 (antibody, V domains shown)
VH: QLQLQESGPGLVKPSETLSLTCTVSGDSISSGDYYWGWIRQPPGKGLEWIGHIYYSGATYYNPSLKNRVTISVDTSKNQFSLKLSSVTAADTAVYYCTREDSSNWRSRGQGTLVTVSS
notes: Heavy chain-only antibody (UniAb), no light chain
B2: anti-CD22 heavy chain-only antibody Clone ID 335189 (antibody, V domains shown)
VH: QLQLQESGPGLVKPSETLSLTCTVSGGSISSSSYYWGWIRQPPGKGLEWIGSVYYTGATYYNPSLKNRVTISVDTSKNQFSLKLSSVTAADTAVYYCTRDDSSNWRSRGQGTLVTVSS
notes: as for B1
B3: anti-CD22 heavy chain-only antibody Clone ID 335210 (antibody, V domains shown)
VH: QLQLQESGPGLVKPSETLSLTCTVSGGSISSGDYYWGWIRQPPGKGLEWIGHIYYSGATYYNPSLKNRVTISVDTSRNQFSLKLSSVTAADTAVYYCTREDSSNWRSRGQGTLVTVSS
notes: as for B1
B4: anti-CD22 heavy chain-only antibody Clone ID 335170 (antibody, V domains shown)
VH: QLQLQESGPGLVKPSETLSLTCTVSGDSISSGDYYWGWIRQPPGKGLEWIGHIYYSGATYYNPSLKNRVTISVDTSRNQFSLKLSSVTAADTAVYYCTRDDSSNWRSRGQGTLVTVSS
notes: as for B1
B5: anti-CD22 heavy chain-only antibody Clone ID 335208 (antibody, V domains shown)
VH: QLQLQESGPGLVKPSETLSLTCTVSGGSISSSSYYWGWIRQPPGKGLEWIGSIYYSGATYYNPSLKNRVTISVDTSRNQFSLNLSSVTAADTAVYYCTREDSSNWRSRGQGTLVTVSS
notes: as for B1
B6: anti-CD22 heavy chain-only antibody Clone ID 335158 (antibody, V domains shown)
VH: QLQLQESGPGLVKPSETLSLTCTVSGGSISSGDYYWGWIRQPPGKGLEWIGHIYYSGATYYNPSLKNRVTISVDTSRNQFSLKLSSVTAADTAVYYCTRDDSSNWRSRGQGTLVTVSS
notes: as for B1
B7: anti-CD22 heavy chain-only antibody Clone ID 335151 (antibody, V domains shown)
VH: QLQLQESGPGLVKPSETLSLTCTVSGDSISSGDYYWGWIRQPPGKGLEWIGHIYYSGATYYNPSLKNRVTISVDTSRNQFSLNLSSVTAADTAVYYCTRDDSSNWRSRGQGTLVTVSS
notes: as for B1
B8: anti-CD22 heavy chain-only antibody Clone ID 335176 (antibody, V domains shown)
VH: QLQLQESGPGLVKPSETLSLTCTVSGDSISSGDYYWGWIRQPPGKGLEWIGHIYYSGATYYNPSLKNRVTISVDTSKNQFSLKLSSVTAADTAVYYCTRDDSSNWRSRGQGTLVTVSS
notes: as for B1
B9: anti-CD22 heavy chain-only antibody Clone ID 335171 (antibody, V domains shown)
VH: QLQLQESGPGLVKPSETLSLTCTVSGGSISSSSYYWGWIRQPPGKGLEWIGSIYYSGATYYNPSLKNRVTISVDTSRNQFSLNLSSVTAADTAVYYCTRDDSSNWRSRGQGTLVTVSS
notes: as for B1
B10: anti-CD22 heavy chain-only antibody Clone ID 335159 (antibody, V domains shown)
VH: QLQLQESGPGLVKPSETLSLTCTVSGGSISSSSYYWGWIRQPPGKGLEWIGHIYYSGVTYYNPSLKNRVTISVDTSKNQFSLKLSSVTAADTAAYYCTRDDSSNWRSRGQGTLVTVSS
notes: as for B1
B11: anti-CD22 heavy chain-only antibody Clone ID 335203 (antibody, V domains shown)
VH: QLQLQESGPGLVKPSETLSLTCTVSGDSISSGDYYWGWIRQPPGKGLEWIGHIYYSGVTYYNPSLKNRVTISVDTSKNQFSLKLSSVTAADTAVYYCTREDSSNWRSRGQGTLVTVSS
notes: as for B1
B12: anti-CD22 heavy chain-only antibody Clone ID 324508 (antibody, V domains shown)
VH: QLQLQESGPGLVKPSETLSLTCTVSGGSISSGDYYWGWIRQPPGKGLEWIGHIYYSGATYYNPSLENRVTISVDTSKNQFSLKLSSVTAADTAVYYCTRDDSSNWRSRGQGTLVTVSS
notes: as for B1
B13: anti-CD22 heavy chain-only antibody Clone ID 335150 (antibody, V domains shown)
VH: QLQLQESGPGLVKPSETLSLTCTVSGDSISSGDYYWGWIRQSPEKGLEWIGHIYYSGVTYYNPSLKNRVTISVDTSKNQFSLKLSSVTAADTAVYYCKRDDSSNWRSRGQGTLVTVSS
notes: as for B1
B14: anti-CD22 heavy chain-only antibody Clone ID 335218 (antibody, V domains shown)
VH: QLQLQESGPGLVKPSETLSLTCTVSGDSISSGDYYWGWIRQPPGKGLEWIGHIYYSGATYYNPSLKNRVTISVDTSRNQFSLKLSSVTAADTAVYYCTREDSSNWRSRGQGTLVTVSS
notes: as for B1
B15: anti-CD22 heavy chain-only antibody Clone ID 335181 (antibody, V domains shown)
VH: QLQLQESGPGLVKPSETLSLTCTVSGDSISSGGYYWGWIRQPPGKGLEWIGHIYYSGATYYNPSLKNRVTISVDTSKNQFSLKLSSVTAADTAVYYCTRDDSSNWRSRGQGTLVTVSS
notes: as for B1
B16: anti-CD22 heavy chain-only antibody Clone ID 335160 (antibody, V domains shown)
VH: QLQLQESGPGLVKPSETLSLTCTVSGDSISSGDYYWGWIRQPPGKGLEWIGSIYYSGATYYNPSLKNRVTISVDTSKNQFSLKLSSVTAADTAVYYCTRDDSSNWRSRGQGTLVTVSS
notes: as for B1
B17: anti-CD22 heavy chain-only antibody Clone ID 335187 (antibody, V domains shown)
VH: QLQLQESGPGLVKPSETLSLTCTVSGGSISSSSYYWGWIRQPPGKGLEWIGHIYYSGATYYNPSLKNRVTISVDTSKNQFSLKLSSVTAADTAVYYCTRDDSSNWRSRGQGTLVTVSS
notes: as for B1
B18: anti-CD22 heavy chain-only antibody Clone ID 335166 (antibody, V domains shown)
VH: QLQLQESGPGLVKPSETLSLTCTVSGGSISSSSYYWGWIRQPPGKGLEWIGSIYYSGSTYYNPSLKNRVTISVDTSRNQFSLNLSSVTAADTAVYYCTRDDSSNWRSRGQGTLVTVSS
notes: as for B1
B19: anti-CD22 heavy chain-only antibody Clone ID 335162 (antibody, V domains shown)
VH: QLQLQESGPGLVKPSETLSLTCTVSGGSIISSSYYWGWIRQPPGKGLEWIGSIYYSGSAYYHPSLKSRVTISIDTSKNQFSLKLSSVTAADTAVYYCARDDSSNWRSRGQGTLVTVSS
notes: as for B1
B20: anti-CD22 heavy chain-only antibody Clone ID 335207 (antibody, V domains shown)
VH: QLQLQESGPGLVKPSETLSLTCTVSGDSISSGDYYWGWIRQPPGKGLEWIGHIYYSGVTYYNPSLKSRVTISVDTSRNQFSLKLSSVTAADTAVYYCTREDSSNWRSRGQGTLVTVSS
notes: as for B1
B21: anti-CD22 heavy chain-only antibody Clone ID 335185 (antibody, V domains shown)
VH: QLQLQESGPGLVKPSETLSLTCTVSGDSISSGDYYWGWIRQPPGKGLEWIGHIYYSGATYYNPSLKNRVTISVDTSRNQFSLNLSSVTAADTAVYYCTREDSSNWRSRGQGTLVTVSS
notes: as for B1
B22: anti-CD22 heavy chain-only antibody Clone ID 335188 (antibody, V domains shown)
VH: QLQLQESGPGLVKPSETLSLTCTVSGGSISSSSYYWGWIRQPPGKGLEWIGHIYYSGVTYYNPSLKNRVTISVDTSKNQFSLKLSSVTAADTAVYYCTRDDSSNWRSRGQGTLVTVSS
notes: as for B1
B23: anti-CD22 heavy chain-only antibody Clone ID 335173 (antibody, V domains shown)
VH: QLQLQESGPGLVKPSETLSLTCTVSGGSITSSSYYWGWIRQPPGKGLEWIGSIYYSGSTYYNPSLKSRVTISVDTSKNQFSLKLSSVTAADTAVYYCTRDDSSNWRSRGQGTLVTVSS
notes: as for B1
B24: anti-CD22 heavy chain-only antibody Clone ID 335195 (antibody, V domains shown)
VH: QLQLQESGPGLVKPSETLSLTCTVSGGSISSSSYYWGWIRQPPGKGLEWIGSIYYSGATYYNPSLKNRVTISVDTSRNQFSLNLSSVTAADTAMYYCTREDSSNWRSRGQGTLVTVSS
notes: as for B1
B25: anti-CD22 heavy chain-only antibody Clone ID 335182 (antibody, V domains shown)
VH: QLQLQESGPGLVKPSETLSLTCTVSGDSISSGDYYWGWIRQPPGKGLEWIGNIYYSGATYYNPSLKNRVTISVDTSKNQFSLKLSSVTAADTAVYYCTRDDSSNWRSRGQGTLVTVSS
notes: as for B1
B26: anti-CD22 heavy chain-only antibody Clone ID 335186 (antibody, V domains shown)
VH: QLQLQESGPGLVKPSETLSLTCTVSGGSISSSSYYWGWIRQPPGKGLEWIGSIYYSGSTYYNPSLKSRVTISVDTSKNQFSLKLSSVTAADTAVYYCTRDDSSNWRSRGQGTLVTVSS
notes: as for B1
B27: anti-CD22 heavy chain-only antibody Clone ID 335154 (antibody, V domains shown)
VH: QLQLQESGPGLVKPSETLSLTCTVSGDSISSGDYYWGWIRQPPGKGLEWIGHIYYSGVTYYNPSLKNRVTISVDTSKNQFSLKLSSVTAADTAVYYCTRDDSSNWRSRGQGTLVTVSS
notes: as for B1
B28: anti-CD22 heavy chain-only antibody Clone ID 335201 (antibody, V domains shown)
VH: QLQLQESGPGLVKPSETLSLTCTVSGDSISSGDYYWGWIRQPPGKGLEWIGHIYYSGVTYYNPSLKNRVTISVDTSRNQFSLKLSSVTAADTAVYYCTREDSSNWRSRGQGTLVTVSS
notes: as for B1
B29: anti-CD22 heavy chain-only antibody Clone ID 335161 (antibody, V domains shown)
VH: QLQLQESGPGLVKPSETLSLTCTVSGDSISSGDYYWGWIRQPPGKGLEWIGHIYYSGATYYNPSLENRVTISVDTSKNQFSLKLSSVTAADTAVYYCTRDDSSNWRSRGQGTLVTVSS
notes: as for B1

The target of the test is T1, human CD22 (human, UniProt P20273 20-687, limits assumed).
T1 construct: also called SIGLEC-2; human CD22 protein
T1 sequence (looked up): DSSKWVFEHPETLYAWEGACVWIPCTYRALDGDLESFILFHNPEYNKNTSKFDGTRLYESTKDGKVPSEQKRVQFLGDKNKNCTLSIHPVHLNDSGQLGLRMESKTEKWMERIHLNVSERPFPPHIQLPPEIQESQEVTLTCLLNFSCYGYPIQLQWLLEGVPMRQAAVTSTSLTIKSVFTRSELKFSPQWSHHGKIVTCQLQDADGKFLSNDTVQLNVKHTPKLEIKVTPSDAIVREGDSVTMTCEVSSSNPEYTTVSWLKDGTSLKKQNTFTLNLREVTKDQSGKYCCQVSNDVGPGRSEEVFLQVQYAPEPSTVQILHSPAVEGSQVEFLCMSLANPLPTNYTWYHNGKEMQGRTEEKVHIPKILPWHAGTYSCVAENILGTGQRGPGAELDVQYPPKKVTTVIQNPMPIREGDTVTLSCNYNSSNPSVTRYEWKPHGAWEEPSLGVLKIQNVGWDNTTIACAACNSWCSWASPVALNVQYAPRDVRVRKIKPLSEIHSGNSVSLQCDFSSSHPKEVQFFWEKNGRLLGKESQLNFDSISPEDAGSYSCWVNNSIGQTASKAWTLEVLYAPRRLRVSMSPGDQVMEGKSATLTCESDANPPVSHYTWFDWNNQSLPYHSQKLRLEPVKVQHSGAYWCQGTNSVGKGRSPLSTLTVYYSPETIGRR
The test is described as follows: ELISA protein and cell-binding assays. In general terms: In an ELISA, binding on a coated surface is turned into a signal by an enzyme label.
Consider B1, for which the binding result was “binds”. In the case of B2 it was “binds”. With B3, the binding result was “binds”.

Take B4: the binding result is recorded as “binds”. The value for B5 was “binds”; that for B6 was “binds”; that for B7 was “binds”. In the case of B8 it was “binds”. The value for B9 was “binds”; that for B10 was “binds”; that for B11 was “binds”.

B12: the binding result is “binds”. The value for B13 was “binds”; that for B14 was “binds”. In the case of B15 it was “binds”; in that of B16, “binds”; in that of B17, “binds”.

Consider B18, for which the binding result was “binds”.

Consider B19, for which the binding result is on record as “binds”. With B20, the binding result is reported as “binds”. For B21, the binding result is “binds”.

On to B22, for which the binding result was “binds”. The value for B23 was “binds”; that for B24 was “binds”; that for B25 was “binds”. The value for B26 was “binds”; that for B27 was “binds”. For B28, the binding result is “binds”. The value for B29 was “binds”.
